Changes are numbered by the printed parent chain. “And” between values parts separate entries of the source, which are not always exact repeats. Equal values may be shown once.

First the molecules themselves.
B1: Clone 1.8 (VHH)
VHH: QVQLVESGGGLVQPGGSLRLSCAASGFTFSSYGMYWVRQAPGKGLEWVAKIEQDGSEKYYVDSVKGRFTISRDNAKNSLFLQMNSLRAEDTAVYYCAKGEILPLYFDYWGQGTLVTVSS
notes: Human single VH domain
B2: Clone 1.13 (VHH)
VHH: B1 VHH with Q1E, K50S, F80Y
notes: Human single VH domain
B3: Clone 1.14 (VHH)
VHH: B1 VHH with Q1E, P14R, G33R, K50S, K58E, N77K
notes: Human single VH domain
B4: VH 1.16.1 (clone 1.16 expressed from phagemid vector: with linker residues and His tag) (VHH)
VHH: B1 VHH with Q1E, G33S, K50E, E52K, K58Q, F80Y, S85G
notes: Human single VH domain
B5: VH 1.19.1 (clone 1.19 expressed from phagemid vector: with linker residues and His tag) (VHH)
VHH: B1 VHH with Q1E, A24T, K50E, E52K, F80Y
notes: Human single VH domain
B6: VH 1.3.1 (clone 1.3 expressed from phagemid vector: with linker residues and His tag) (VHH)
VHH: B1 VHH with Q1E, G33S, K50E, E52K, E57V, K58Q, F80Y
notes: Human single VH domain; also called Clone 1.3 prep 1; Clone 1.3 prep 2
B7: VH 1.20.1 (clone 1.20 expressed from phagemid vector: with linker residues and His tag) (VHH)
VHH: B1 VHH with Q1E, K58E, V61A, N77K, F80Y
notes: Human single VH domain
B8: Clone 1.9 (VHH)
VHH: B1 VHH with K50E, E52K, F80Y
notes: Human single VH domain
B9: Clone 1.12 (VHH)
VHH: B1 VHH with K58E, F80Y
notes: Human single VH domain
B10: VH 1.18.1 (clone 1.18 expressed from phagemid vector: with linker residues and His tag) (VHH)
VHH: B1 VHH with Q1E, G33S, K50E, E52K, E57V, K58Q, D62G, S63G, F80Y
notes: Human single VH domain
B11: VH 1.21.1 (clone 1.21 expressed from phagemid vector: with linker residues and His tag) (VHH)
VHH: B1 VHH with Q1E, Q13L, G33S, K50E, E52K, K58Q, F80Y
notes: Human single VH domain
B12: Clone 1.22 (VHH)
VHH: B1 VHH with Q1E, Q13R, K58E, N77K, F80Y
notes: Human single VH domain
B13: Clone 1.11 (VHH)
VHH: B1 VHH with Q1E, G33Q, K50S, E52K, K58E
notes: Human single VH domain
B14: VH 1.17.1 (clone 1.17 expressed from phagemid vector: with linker residues and His tag) (VHH)
VHH: EVQLVESGGGLVQPGGSLRLSCAASGFTFSSYSMYWVRQAPGKGLEWVAEIKPTGSVQYYVSDVKGRFTISRDNAKNSLYLQMNSLRAEDTAVYYCAKGEILPLYFDYWGQGTLVTVSS
notes: Human single VH domain
B15: Clone 3.11 (VHH)
VHH: QVQLVQSGAEVKKPGASVKVSCKASGYNFDAYHINWVRQAPGQGLEWMGSIKPNSGATKYAQKFQGRVTITRDTSISTAYMELSRLRSDDTAVYYCASLDRDTWYPHSYFGWFDSWGQGTLVTVSS
notes: Human single VH domain
B16: Clone 3.9 (VHH)
VHH: B15 VHH with L99M, T103Y, W104Y, Y105D, P106T, H107S, S108G
notes: Human single VH domain
B17: Clone 3.13 (VHH)
VHH: B15 VHH with F110A
notes: Human single VH domain
B18: Clone 3.3 (VHH)
VHH: QVQLVQSGAEVKKPGASVKVSCAASGYTFTDYYLHWVRQAPGQGLEWMGWINPNTGTTKYAREFEGRVTMTRDTSISTAYMELSRLRSDDTAVYYCASMDRDYYDTSGYFGWFDSWGQGTLVTVSS
notes: Human single VH domain
B19: Clone 3.5 (VHH)
VHH: B18 VHH with M99L, Y103W, Y104R, D105S, T106P, S107N, G108D
notes: Human single VH domain
B20: Clone 3.6 (VHH)
VHH: B18 VHH with M99L, Y103W, Y104R, D105S, T106P, S107N, G108D, F110Y
notes: Human single VH domain
B21: VH 1.2.2 (+HIS) (VHH)
VHH: B14 VHH with P53Q, T54D
notes: also called 1.2.2 (clone 1.2 with C terminal extension and His tag)
B22: VH 1.2.3 (clone 1.2 with C terminal extension) (VHH)
VHH: B14 VHH with P53Q, T54D
notes: Human single VH domain

The target of the first experiment is T1, recombinant human IL-17A (human, UniProt Q16552 24-155).
T1 construct: Bought recombinant protein (Peprotech AF-200-17); also called Peprotech AF-200-17
T1 sequence (Q16552 24-155): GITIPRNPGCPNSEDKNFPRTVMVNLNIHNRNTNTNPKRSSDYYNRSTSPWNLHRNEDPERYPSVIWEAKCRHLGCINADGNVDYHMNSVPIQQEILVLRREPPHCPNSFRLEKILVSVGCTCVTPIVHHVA
The experiment in a line: SPR (BIAcore T200), IL-17A coupled to CM5 chip, single-cycle kinetics.
In the case of B1, the Kd worked out at 0.616 nM, the koff stood at 0.000429 s⁻¹ and the association rate constant (kon) stood at 697000 M⁻¹ s⁻¹.
In the same order, the values of B2 are 0.84 nM, 0.000515 s⁻¹ and 614000 M⁻¹ s⁻¹.
In the same order, the values of B3 are 0.913 nM, 0.000688 s⁻¹ and 753000 M⁻¹ s⁻¹.
The matching figures for B4: 0.216 nM, 0.000213 s⁻¹ and 986000 M⁻¹ s⁻¹.
Take B5: the dissociation constant Kd turned out to be 0.215 nM, the off-rate (koff) was 0.000153 s⁻¹ and the kon came to 714000 M⁻¹ s⁻¹.
As to B6, the Kd is 0.627 nM and 0.23 nM; the off-rate (koff) was 0.000501 s⁻¹ and 0.000222 s⁻¹; the kon is 799000 M⁻¹ s⁻¹ and 964000 M⁻¹ s⁻¹.
As to B7, the Kd worked out at 0.244 nM, the off-rate constant (koff) was 0.000208 s⁻¹ and the kon came to 851000 M⁻¹ s⁻¹.
In the same order, the values of B8 are 0.529 nM, 0.000464 s⁻¹ and 877000 M⁻¹ s⁻¹.
With B9, the Kd amounted to 0.724 nM, the koff was found to be 0.00053 s⁻¹ and the association rate constant (kon) was determined as 732000 M⁻¹ s⁻¹.
Turning to B10, the Kd was 0.366 nM, the off-rate constant (koff) was determined as 0.000479 s⁻¹ and the on-rate constant (kon) stood at 1.31e+06 M⁻¹ s⁻¹.
The matching figures for B11: 0.259 nM, 0.000205 s⁻¹ and 792000 M⁻¹ s⁻¹.
B12: the Kd turned out to be 0.223 nM, the off-rate (koff) was 0.000126 s⁻¹ and the kon turned out to be 565000 M⁻¹ s⁻¹.
As for B13, the Kd turned out to be 0.845 nM, the koff was 0.000521 s⁻¹ and the kon came out at 617000 M⁻¹ s⁻¹.
B14: the dissociation constant (Kd) amounted to 0.5 nM, the koff stood at 0.000462 s⁻¹ and the kon came to 923000 M⁻¹ s⁻¹.

In the next experiment the target is T2, IL-17C (UniProt Q9P0M4 19-197, limits assumed).
T2 sequence (looked up): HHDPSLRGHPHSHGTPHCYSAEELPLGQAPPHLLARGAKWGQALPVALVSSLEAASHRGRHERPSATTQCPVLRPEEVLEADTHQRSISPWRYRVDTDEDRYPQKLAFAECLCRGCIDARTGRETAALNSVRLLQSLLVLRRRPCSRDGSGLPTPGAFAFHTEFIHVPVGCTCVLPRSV
Briefly: specificity ELISA on coated antigen, VH concentration not given. A general note: ELISA stands for enzyme-linked immunosorbent assay.
Consider B4, for which the binding result is “no binding”.
On the same count and under the same terms, the result for B5 reads “no binding”.
Same read-out and setting: then B6, with “no binding”; and B7, with “no binding”.

Another experiment concerns the target T3, IL-17F (UniProt Q96PD4 31-163, limits assumed).
T3 sequence (looked up): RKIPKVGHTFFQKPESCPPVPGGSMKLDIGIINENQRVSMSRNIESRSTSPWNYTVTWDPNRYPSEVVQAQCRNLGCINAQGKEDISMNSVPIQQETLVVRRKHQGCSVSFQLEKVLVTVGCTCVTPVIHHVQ
The description is as above.
With B4, the binding result was “no binding”.
Same read-out and setting: then B5, with “no binding”; and B6, with “no binding”; and B7, with “no binding”.

The target in a further experiment is T4, murine IL-17A (murine, UniProt Q62386 26-158, limits assumed).
T4 sequence (looked up): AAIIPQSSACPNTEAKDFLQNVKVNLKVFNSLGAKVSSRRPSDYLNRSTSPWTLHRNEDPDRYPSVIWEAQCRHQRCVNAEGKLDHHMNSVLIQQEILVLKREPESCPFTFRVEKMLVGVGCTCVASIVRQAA
The description is as above.
On to B5, for which the binding result is “binds”.
On to B6, for which the binding result is recorded as “binds”.
Still for that read-out and setting: the result for B7 reads “binds”.

Another experiment concerns the target T5, recombinant IL-17RA-Fc (UniProt Q96F46 33-320).
T5 construct: Bought reagent; also called R & D systems cat #177-IR-100; receptor; not shown: Fc part of the bought fusion, not described
Described as above.
As to B4, the binding result is given as “no binding”.
Same read-out and setting: the result for B5 reads “no binding”; that for B6, “no binding”.
Still for that read-out and setting: the result for B7 reads “no binding”.

The next experiment has as its target T1, recombinant human IL-17A. The experiment in a line: cell-based or functional assay.
Turning to B1, the “Cell assay IC50 (nM), IL-17A-induced IL6 release from HT1080” value (shortened to “Cell assay IC50 (nM)”) was found to be 1.2 nM.
On the same count and under the same terms, then B2, with 1.2 nM; and B3, with 2.9 nM; and B4, with 1.4 nM.
On the same count and under the same terms, then B5, with 1.2 nM.
The same measure, in the same setting: then B7, with 2.03 nM; and B8, with 2.4 nM.
As to B9, the “Cell assay IC50 (nM)” value is 1.4 nM.
B10: the “Cell assay IC50 (nM)” value turned out to be 1.04 nM.
For the molecule B11, the “Cell assay IC50 (nM)” value came out at 2.05 nM.
Still for that read-out and setting: the result for B12 reads 3.25 nM.
With B13, the “Cell assay IC50 (nM)” value worked out at 1.5 nM.
The same measure, in the same setting: then B14, with 1.91 nM.

In another experiment the target is T1, recombinant human IL-17A. Briefly: SPR (BIAcore T200), IL-17A coupled to CM5 chip, single-cycle kinetics. This is another data set of the same source.
On to B15, for which the Kd stood at 0.44 nM, the koff was found to be 0.000237 s⁻¹ and the kon amounted to 538000 M⁻¹ s⁻¹.
As to B16, the dissociation constant Kd stood at 21 nM, the off-rate constant (koff) worked out at 0.00201 s⁻¹ and the kon came to 96400 M⁻¹ s⁻¹.
The matching figures for B17: 0.197 nM, 0.000201 s⁻¹ and 1.02e+06 M⁻¹ s⁻¹.
The matching figures for B18: 29 nM, 0.00285 s⁻¹ and 99800 M⁻¹ s⁻¹.
For B19, the dissociation constant Kd worked out at 2.2 nM, the koff is 0.000619 s⁻¹ and the kon came to 281000 M⁻¹ s⁻¹.
In the same order, the values of B20 are 0.838 nM, 0.00048 s⁻¹ and 573000 M⁻¹ s⁻¹.

In a further experiment the target is T1, recombinant human IL-17A. The experiment in a line: competition ELISA, IL-17A binding to coated IL-17RA-Fc.
Turning to B15, the concentration for half-maximal inhibition (IC50) turned out to be 8 nM.
On the same count and under the same terms, then B16, with 43 nM; and B17, with 2 nM; and B18, with 271 nM.
Still for that read-out and setting: the result for B19 reads 4 nM; that for B20, 3 nM.

The target of the next experiment is T1, recombinant human IL-17A. The experiment in a line: cell-based or functional assay. This is another data set of the same source.
For the molecule B15, the “Cell assay IC50 (nM)” value was 17 nM.
On to B16, for which the “Cell assay IC50 (nM)” value was determined as 182 nM.
With B17, the “Cell assay IC50 (nM)” value was 5 nM.
Still for that read-out and setting: then B18, with 106 nM.
Same read-out and setting: then B19, with 26 nM.
With B20, the “Cell assay IC50 (nM)” value is 28 nM.

Another experiment has as its target T1, recombinant human IL-17A. The experiment in a line: BIAcore single-cycle kinetics on immobilised IL-17A, 1:1 binding fit. (SPR reads the build-up and loss of mass on a sensor chip optically.)
With B21, the Kd worked out at 0.55 nM, the koff was 0.000485 s⁻¹ and the kon stood at 874000 M⁻¹ s⁻¹.
For the molecule B22, the Kd was 0.62 nM, the koff came to 0.000465 s⁻¹ and the kon is 748000 M⁻¹ s⁻¹.

For orientation: Kd means the constant that tells how readily two partners part at equilibrium. A word on the koff: it is the rate constant with which the complex falls apart. Usually kon stands for the second-order rate constant of association. For orientation: IC50 means the concentration that inhibits the measured activity by half.

(Values after patent US20200347127A1 (CRESCENDO BIOLOGICS, published 2020).)
